From patent US20240002505A1 (NANJING IASO BIOTECHNOLOGY, published 2024)
Changes are numbered by the printed parent chain.

B1: Clone 35 anti-CD5 IgG (antibody, V domains shown)
VH: QVQLVESGGGLVQPGGSLRLSCAASGFTFSSYAMSWVRQTPGKGLEWVSTITDSGDITYYTASVQGRFTISRDNSKNTLYLQMNSLRAEDTAVYYCARMSSHWYFSADYWGQGTLVTVSS
VL: QSVLTQPPSVSAAPGQKVTISCSGSSSNIGNNYVSWYQQLPGTAPKLLIYDNNKRPSGIPDRFSGSKSGTSATLGITGLQTGDEADYYCGTWDSSLSAVVFGGGTKLTVLG
notes: The VH entry as printed begins with MA carried over from the scFv
B2: Clone 32 anti-CD5 IgG (antibody, V domains shown)
VH: QVQLVESGGGLVKPGGSLRLSCAASGFTFSSYSMNWVRQAPGKGLEWVSSISSSSSYIYYADSVKGRFTISRDNAKNSLYLQMNSLRAEDTAVYYCARGNPWYGVDYWGQGTLVTVSS
VL: B1 VL with S26N, L47R, T91I, S97D, V99Y, G103T, L107V
B3: H65 anti-CD5 IgG (antibody, V domains shown)
VH: QIQLVQSGPELKKPGETVKISCKASGYTFTNYGMNWVKQAPGKGLRWMGWINTHTGEPTYADDFKGRFAFSLETSASTAYLQINNLKNEDTATYFCTRRGYDWYFDVWGAGTTVTVSS
VL: DIKMTQSPSSMYASLGERVTITCKASQDINSYLSWFHHKPGKSPKTLIYRANRLVDGVPSRFSGSGSGQDYSLTISSLDYEDMGIYYCQQYDESPWTFGGGTKLEIK
B4: phage monoclone #9 (scFv)
scFv: QPVLTQPPSVSGSPGQSVTISCTGTSDDIGNYKRVSWYQQPPGTAPKLMIYEVTNRPPGVPNRFSGSKSGNTASLTISGLQAEDEADYYCSSYASGDTYVFGTGTKVTVLGSRGGGGSGGGGSGGGGSLEQVQLVQSGAEVEKPGASVKISCKASTYTFTNYYIHWVRQAPGQGLEWMGMINPSGDTTSYAQKFQGRVTMTRDTSTSTVYMELSSLRSEDTAVYYCARLSWYWGGSFDDWGQGTLVTVSS
notes: also called scFv9
B5: phage monoclone #10 (scFv)
scFv: QSVVTQPPSVSGAPGQRVTISCTGSSSNIGAGYDVHWYQQLPGTAPKLLIYGNINRPSGVPDRFSGSKSGTSASLAITGLQAEDEADYYCGTWDNSLSAHYVFGTGTKVTVLGSRGGGGSGGGGSGGGGSLEEVQLLESGGGLVKPGGSLRLSCAASGFTFNNYTMNWVRQAPGKGLEWVSSISSSSSYIYYADSVKGRFTISRDNAKNSLFLQMNSLRGEDTAVYYCARYFSGSAGDYWGQGTLVTVSS
notes: also called scFv10
B6: phage monoclone #35 (scFv)
scFv: QSVLTQPPSVSAAPGQKVTISCSGSSSNIGNNYVSWYQQLPGTAPKLLIYDNNKRPSGIPDRFSGSKSGTSATLGITGLQTGDEADYYCGTWDSSLSAVVFGGGTKLTVLGSRGGGGSGGGGSGGGGSLEMAQVQLVESGGGLVQPGGSLRLSCAASGFTFSSYAMSWVRQTPGKGLEWVSTITDSGDITYYTASVQGRFTISRDNSKNTLYLQMNSLRAEDTAVYYCARMSSHWYFSADYWGQGTLVTVSS
notes: also called scFv35
B7: phage monoclone #6 (scFv)
scFv: NFMLTQPHSVSESPGKTVTISCTGNSGSIARNYVQWYQQRPGSAPTMLIYEDNRRPSGVPDRFSGSIDSSSNSASLTISGLKTEDEADYYCQSYDDNTSWVFGGGTKLTVLGSRGGGGSGGGGSGGGGSLEMAEVQLVQSGAEVKKPGSSVKVSCKASGGTFSSNAITWVRQAPGQGLEWMGGIIPMFGTTDYAQKFQGRVTMTADESTSTAYMELRSLRSEDTAVYYCARDGGGRHPYYYYGMDVWGQGTTVTVSS
notes: also called scFv6
B8: Clone 10 anti-CD5 IgG (antibody, V domains shown)
VH: EVQLLESGGGLVKPGGSLRLSCAASGFTFNNYTMNWVRQAPGKGLEWVSSISSSSSYIYYADSVKGRFTISRDNAKNSLFLQMNSLRGEDTAVYYCARYFSGSAGDYWGQGTLVTVSS
VL: QSVVTQPPSVSGAPGQRVTISCTGSSSNIGAGYDVHWYQQLPGTAPKLLIYGNINRPSGVPDRFSGSKSGTSASLAITGLQAEDEADYYCGTWDNSLSAHYVFGTGTKVTVLG
B9: phage monoclone #7 (scFv)
scFv: QSVVTQPPSVSAAPGQKATISCSGSSSNIGNNDVSWYQQLPGTAPKLLIQDNDKRPSGIPDRFSGSKSGTSATLGITGLQTGDEADYYCAVWDSSLSAAVFGPGTKVTVLGSRGGGGSGGGGSGGGGSLEMAEVQLVQSGAEVKKPGESLKISCKGSGYSFTSYWIGWVRQMPGKGLEWMGIIYPDDSDTTYSPSFQGQVTMSVDKSISTAYLQWNSLQASDTAMYYCARMSLTSYLATDGWGQGTLVTVSS
notes: also called scFv7
B10: phage monoclone #32 (scFv)
scFv: QVQLVESGGGLVKPGGSLRLSCAASGFTFSSYSMNWVRQAPGKGLEWVSSISSSSSYIYYADSVKGRFTISRDNAKNSLYLQMNSLRAEDTAVYYCARGNPWYGVDYWGQGTLVTVSSTSGGGGSGGGGSGGGGSELQSVLTQPPSVSAAPGQKVTISCSGSNSNIGNNYVSWYQQLPGTAPKRLIYDNNKRPSGIPDRFSGSKSGTSATLGITGLQTGDEADYYCGIWDSSLDAYVFGTGTKVTVLG
notes: also called scFv32

How the values were obtained:
[1] = target: T1, CD5 antigen (Octet affinity determination, Example 8) (UniProt P06127 25-372, limits assumed); assay: BLI (Octet), IgG loaded on the biosensor, CD5 antigen 400 to 12.5 nM, 1:1 model
T1 sequence (looked up): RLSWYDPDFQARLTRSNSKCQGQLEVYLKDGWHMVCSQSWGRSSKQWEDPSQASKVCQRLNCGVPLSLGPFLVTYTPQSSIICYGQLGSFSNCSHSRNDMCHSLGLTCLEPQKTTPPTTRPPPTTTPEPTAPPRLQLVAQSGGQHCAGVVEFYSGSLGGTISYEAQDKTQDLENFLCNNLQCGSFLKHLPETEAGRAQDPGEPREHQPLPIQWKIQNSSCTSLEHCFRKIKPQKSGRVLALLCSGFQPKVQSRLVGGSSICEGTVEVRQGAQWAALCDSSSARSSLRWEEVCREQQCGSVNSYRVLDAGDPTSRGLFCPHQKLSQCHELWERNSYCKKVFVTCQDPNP

[2] = target: T2, Biotinylated Recombinant human BAFFR Protein (Kactus, BAF-HM40RB) (human, UniProt Q96RJ3 7-71, limits assumed, biotinylated); assay: phage ELISA
T2 construct: Non-related control antigen; also called Kactus-BAFFR-his-Bio; not shown: his tag
T2 sequence (looked up): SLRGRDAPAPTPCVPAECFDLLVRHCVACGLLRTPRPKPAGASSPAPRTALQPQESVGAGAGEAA

[3] = target: T3, Recombinant biotinylated Human CD19 Protein-Fc (Kactus, CD2-HE121) (human, UniProt P15391 20-291, biotinylated); assay: phage ELISA
T3 construct: Control antigen; also called CD19-Fc-Bio; Kactus-CD19-FC-Bio; not shown: Fc tag
T3 sequence (looked up): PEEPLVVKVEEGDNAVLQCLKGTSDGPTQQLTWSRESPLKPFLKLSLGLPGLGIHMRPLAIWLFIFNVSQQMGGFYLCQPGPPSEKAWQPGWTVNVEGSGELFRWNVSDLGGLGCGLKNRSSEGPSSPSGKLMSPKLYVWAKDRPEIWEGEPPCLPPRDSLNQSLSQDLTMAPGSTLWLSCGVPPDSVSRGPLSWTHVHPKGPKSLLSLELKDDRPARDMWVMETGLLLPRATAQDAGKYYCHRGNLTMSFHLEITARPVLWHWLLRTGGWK

[4] = target: T4, Streptavidin (Pierce, 21125) (UniProt P22629 37-163, limits assumed); assay: phage ELISA
T4 construct: Non-related control antigen; also called SA

[5] = target: T5, human CD5 on the cell surface (human, UniProt P06127 25-495); assay: phage FACS on Jurkat cells (CD5 positive), anti-M13 + FITC anti-mouse IgG, median of FITC-A
T5 construct: whole, on cells; One molecule for CD5 on all cell lines; also called natural CD5 on the cell membrane; CD5 antigen on Jurkat, CCRF-CEM, MOLT4 cells
T5 sequence (looked up): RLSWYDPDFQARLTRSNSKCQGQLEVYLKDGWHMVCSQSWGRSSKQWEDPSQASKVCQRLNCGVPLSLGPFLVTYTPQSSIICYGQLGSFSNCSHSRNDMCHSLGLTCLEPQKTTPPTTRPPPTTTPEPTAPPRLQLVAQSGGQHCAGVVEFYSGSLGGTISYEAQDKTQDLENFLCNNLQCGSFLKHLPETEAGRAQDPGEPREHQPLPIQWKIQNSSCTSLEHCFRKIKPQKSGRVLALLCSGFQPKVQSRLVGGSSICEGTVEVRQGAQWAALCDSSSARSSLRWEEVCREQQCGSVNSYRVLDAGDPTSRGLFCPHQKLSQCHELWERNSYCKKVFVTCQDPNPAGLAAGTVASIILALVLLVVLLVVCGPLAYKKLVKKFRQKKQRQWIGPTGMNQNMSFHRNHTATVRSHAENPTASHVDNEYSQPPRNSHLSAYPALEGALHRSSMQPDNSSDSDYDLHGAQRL

[6] = target: T5, human CD5 on the cell surface; assay: phage FACS on CCRF-CEM cells (CD5 positive), anti-M13 + FITC anti-mouse IgG, median of FITC-A

T4 sequence (P22629 37-163 limits assumed): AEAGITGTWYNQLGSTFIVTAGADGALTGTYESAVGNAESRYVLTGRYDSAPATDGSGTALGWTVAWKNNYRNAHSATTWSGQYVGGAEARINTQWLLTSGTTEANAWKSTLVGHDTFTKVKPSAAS

Row | Binder | Kd [1] | koff [1] | kon [1] | binding result [2] | binding result [3] | binding result [4] | Median (B1-A) [5] | Median (B1-A) [6]
1 | B1 | 13.6 nM | 0.000382 s⁻¹ | 28100 M⁻¹ s⁻¹ | – | – | – | – | –
2 | B2 | 28.3 nM | 0.00217 s⁻¹ | 76500 M⁻¹ s⁻¹ | – | – | – | – | –
3 | B3 | 2.25 nM | 0.000813 s⁻¹ | 361000 M⁻¹ s⁻¹ | – | – | – | – | –
4 | B4 | – | – | – | no binding | no binding | no binding | 12.8 | 3.37
5 | B5 | – | – | – | no binding | no binding | no binding | 31.6 | 17.1
6 | B6 | – | – | – | no binding | no binding | no binding | – | –
7 | B7 | – | – | – | no binding | no binding | no binding | 71.8 | 1.71
8 | B8 | 4.49 nM | 0.00143 s⁻¹ | 318000 M⁻¹ s⁻¹ | – | – | – | – | –
9 | B9 | – | – | – | no binding | no binding | no binding | 28.3 | 12.4
10 | B10 | – | – | – | no binding | no binding | no binding | – | –
